In patent US20260250325A1, “Antiviral Polypeptide Membrane Fusion Inhibitor, and Preparation Method and Application Thereof” (priority 2025, published 2026):

T1: F protein of RSV A long virus strain (respiratory syncytial virus, RSV A long virus strain), P12568
T1 chain: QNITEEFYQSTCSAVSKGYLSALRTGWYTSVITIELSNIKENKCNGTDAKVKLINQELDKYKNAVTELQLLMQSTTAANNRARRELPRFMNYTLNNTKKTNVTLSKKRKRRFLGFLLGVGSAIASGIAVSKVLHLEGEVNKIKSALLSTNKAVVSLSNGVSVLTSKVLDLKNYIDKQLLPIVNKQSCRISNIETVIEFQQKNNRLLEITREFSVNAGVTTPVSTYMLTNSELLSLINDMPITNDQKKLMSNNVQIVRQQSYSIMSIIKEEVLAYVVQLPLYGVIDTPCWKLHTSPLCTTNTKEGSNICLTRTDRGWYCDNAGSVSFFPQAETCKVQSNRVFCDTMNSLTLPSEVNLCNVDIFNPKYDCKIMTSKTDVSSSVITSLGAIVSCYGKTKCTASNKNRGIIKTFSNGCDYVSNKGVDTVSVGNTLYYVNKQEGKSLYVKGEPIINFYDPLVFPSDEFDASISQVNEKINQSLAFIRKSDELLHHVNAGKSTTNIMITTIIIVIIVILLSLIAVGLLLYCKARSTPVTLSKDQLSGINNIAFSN


Assays:
[1] = biological target: hPIV-N51 (139-189) (human parainfluenza virus (hPIV))
Chain of hPIV-N51 (139-189) (human parainfluenza virus (hPIV)) (P06828 139-189): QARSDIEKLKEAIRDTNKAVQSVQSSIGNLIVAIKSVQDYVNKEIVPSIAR

[2] = substrate: F protein of hMPV virus strain A2 (human metapneumovirus, strain A2); test: cell-based or functional assay
[3] = substrate: F protein of hPIV Type 3 (hPIV3 C243) (human parainfluenza virus type 3, strain C243); test: cell-based or functional assay
[4] = substrate: F protein of hMPV virus strain B1 (human metapneumovirus, strain B1); test: cell-based or functional assay
[5] = biological target: T1, F protein of RSV A long virus strain …; test: cell-based or functional assay

| Binder | Kd [1] | EC50 (nM), plaque reduction, hMPV A2, Vero cells [2] | EC50 (nM), plaque reduction, hPIV3 C243, LLC-MK2 cells [3] | EC50 (nM), plaque reduction, hMPV B1, Vero cells [4] | IC50/nM, Cell fusion inhibition activity (plaque reduction, RSV A long strain, HEp-2 cells) [5] |
| --- | --- | --- | --- | --- | --- |
| DEFDASISQVNEKINQSLEEIRKSDELLHNEAAAKK (modifications not checked) [Compound 28] | 983000 nM | 58.6 nM | 54.4 nM | 13.8 nM | 12.4 nM |
| DEFDKKIEEVNKKIEESLKKIEESDKKLEAAAKK (modifications not checked) [Compound 17] | 314 nM | 8.78 nM | 52.6 nM | 3.61 nM | 17.6 nM |
| DEFDKKIEEVNKKIEESLKKIEESDKKLEEVNEAAAKK (modifications not checked) [Compound 14] | 495 nM | 18.9 nM | 31.4 nM | 5.36 nM | 9.9 nM |
| YDELVFDASQVNEKINQSLEKIRKSDELLHNVEAAAKK (modifications not checked) [Compound 30] | 1020 nM | 94.8 nM | 48.2 nM | 51.3 nM | 14.9 nM |
| WDEFDASIEEVNRRIEESLRRIEESDRRLEEVEAAAKK (modifications not checked) [Compound 43] | 5720 nM | 16.8 nM | 16.1 nM | 8.01 nM | 18.3 nM |
| WDEFDKKIEEVNKKIEESLKKIEESDKKLEAAAKK (modifications not checked) [Compound 13] | 2280 nM | 11.7 nM | 35.6 nM | 6.18 nM | 13 nM |
| SDEFDKKIEEVNKKIEESLKKIEESDKKLEAAAKK (modifications not checked) [Compound 16] | 5400 nM | 7.35 nM | 59 nM | 4.5 nM | 10.3 nM |
| WDEFDASISQVNEKINQSLEEIRKSDELLHNVNALEAAAKK (modifications not checked) [Compound 38] | 24500 nM | 128 nM | 26.4 nM | 16.6 nM | 14.6 nM |
| WDEFDASISQVNEKINQSLEEIRKSDELLHNVNAGLGSGSGK (modifications not checked) [Compound 27] | 812 nM | 78.3 nM | 27.2 nM | 10.5 nM | 25.7 nM |
| WDEFDASISQVNEKINQSLEEIRKSDELLHNEAAAKK (modifications not checked) [Compound 45] | 178000 nM | 200 nM | 36.3 nM | 13.1 nM | 12.2 nM |
| WDEFDKKIEEVNKKIEESLKKIEESDKKLEEVNAEAAAKK (modifications not checked) [Compound 40] | 2270 nM | 13.8 nM | 22.2 nM | 7.47 nM | 11.7 nM |
| WDEFDKKIEEVNKKIEESLKKIEESDKKLEEVNEAAAKK (modifications not checked) [Compound 41] | 492 nM | 11.7 nM | 71.1 nM | 9.46 nM | 14.8 nM |
| WDEFDKKIEEVNKKIEESLKKIEESDKKLHNVEAAAKK (modifications not checked) [Compound 44] | 6860 nM | 14.6 nM | 27.9 nM | 6.6 nM | 12.4 nM |
| YDELVFDASQVNEKINQSLEKIRKSDELLHNVGSGSGK (modifications not checked) [Compound 25] | 74600 nM | 86.4 nM | 29.4 nM | 38.1 nM | 28.7 nM |
| FDASIEEVNRRIEESLRRIEESDRRLEEVNAEAAAKK (modifications not checked) [Compound 42] | 485 nM | 26.1 nM | 18.9 nM | 10.1 nM | 11.8 nM |
| SDEFDKKIEEVNKKIEESLKKIEESDKKLGSGSGK (modifications not checked) [Compound 20] | 6800 nM | 7.47 nM | 59.5 nM | 4.27 nM | 19.8 nM |
| DEFDKKKIEEVNKKIEESLKKIEESDKKLEEVEAAAKK (modifications not checked) [Compound 22] | 20800 nM | 88.4 nM | 65.4 nM | 18 nM | 11.3 nM |
| LVKKIDEFDASISQVNEKINQSLEEIRKSDELLHNVGSGSGK (modifications not checked) [Compound 29] | 1730 nM | 41.6 nM | 26.3 nM | 11.1 nM | 19.3 nM |
| SDELVNKKIEFDKKINQSLKKIEESDKKKLEAAAKK (modifications not checked) [Compound 51] | 51.4 nM | 18.8 nM | 18.8 nM | 3.82 nM | 9.9 nM |
| FDEEISQVNEKINQSLAFIRKSDELLHNVNAGKSTTEAAAKK (modifications not checked) [Compound 26] | 2580 nM | 103 nM | 1.35 nM | 2.85 nM | 12.8 nM |
